PMC6277173

Columns and labels:
[1] = biological target: BM07/vL01 (su3H6 with T94hR, F46lL); test: BLI; protein A bio-assay (Octet QKe): Ab2/3H6 variants captured from concentrated culture supernatants on protein A biosensors, blocked with an unspecific scFv-Fc antibody, association and dissociation of 2F5 IgG measured; kinetics buffer; KD averaged
[2] = biological target: BM07/vL03 (su3H6 with T94hR, F46lL, Q49lS); test: as above
BM07 (su3H6 with T94hR) = test: as above
[3] = biological target: BM09 (su3H6 with T94hR, Y27hA); test: as above
[4] = biological target: BM07/vL02 (su3H6 with T94hR, Q49lS); test: as above
[5] = biological target: human anti HIV-1 monoclonal antibody 2F5 IgG (human); test: BLI; streptavidin bio-assay (Octet QKe): biotinylated 2F5 IgG loaded on streptavidin biosensors, association and dissociation of purified Ab2/3H6 variants; kinetics buffer; KD averaged over different Ab2/3H6 concentrations

Row | Binder | Kd [5] [nM] | further results
1 | human anti HIV-1 monoclonal antibody 2F5 IgG (antibody, V domains shown) VH: RITLKESGPPLVKPTQTLTLTCSFSGFSLSDFGVGVGWIRQPPGKALEWLAIIYSDDDKRYSPSLNTRLTITKDTSKNQVVLVMTRVSPVDTATYFCAHRRGPTTLFGVPIARGPVNAMDVWGQGITVTISS VL: ALQLTQSPSSLSASVGDRITITCRASQGVTSALAWYRQKPGSPPQLLIYDASSLESGVPSRFSGSGSGTEFTLTISTLRPEDFATYYCQQLHFYPHTFGGGTRVDVR | – | Kd [1]: 22 nM; Kd [2]: 21 nM; Kd (BM07 (su3H6 with T94hR)): 170 nM; Kd [3]: 39 µM; Kd [4]: 95 nM
2 | mouse antibody Ab2/3H6 (wt3H6) (antibody, V domains shown) VH: GVQLQQSGPELVKTGASVKISCKASGYSFTDYFMHWVKQSHGKSLDWIGYINCYTGATNYSQKFKGKATFTVDTSSNTAYMQFNSLTSEDSAVYYCARTSIGYGSSPPFPYWGQGTLVTVS VL: ETTVTQSPASLSMSIGEKVTIRCITSTDIDDDMNWYQQKPGEPPRLLISDGNTLRPGVPSRFSSSGYGTDFVFTIENMLSEDVADYYCLQSDNLPYTFGGGTNLEIK | 35 | –
3 | BM07/vL03 (su3H6 with T94hR, F46lL, Q49lS) (antibody, V domains shown) VH: EVQLVQSGAEVKKPGATVKISCKVSGYTFTDYFMHWVQQAPGKGLEWMGYINCYTGATNYSQKFKGRVTITADTSTDTAYMELSSLRSEDTAVYYCARTSIGYGSSPPFPYWGQGTLVTVS VL: ETTLTQSPAFMSATPGDKVNISCITSTDIDDDMNWYQQKPGEAAILIISDGNTLRPGIPPRFSGSGYGTDFTLTINNIESEDAAYYFCLQSDNLPYTFGQGTKLEIK | 29 | –
4 | BM07/vL01 (su3H6 with T94hR, F46lL) (antibody, V domains shown) VH: EVQLVQSGAEVKKPGATVKISCKVSGYTFTDYFMHWVQQAPGKGLEWMGYINCYTGATNYSQKFKGRVTITADTSTDTAYMELSSLRSEDTAVYYCARTSIGYGSSPPFPYWGQGTLVTVS VL: ETTLTQSPAFMSATPGDKVNISCITSTDIDDDMNWYQQKPGEAAILIIQDGNTLRPGIPPRFSGSGYGTDFTLTINNIESEDAAYYFCLQSDNLPYTFGQGTKLEIK | 28 | –
5 | BM07 (su3H6 with T94hR) (antibody, V domains shown) VH: EVQLVQSGAEVKKPGATVKISCKVSGYTFTDYFMHWVQQAPGKGLEWMGYINCYTGATNYSQKFKGRVTITADTSTDTAYMELSSLRSEDTAVYYCARTSIGYGSSPPFPYWGQGTLVTVS VL: ETTLTQSPAFMSATPGDKVNISCITSTDIDDDMNWYQQKPGEAAIFIIQDGNTLRPGIPPRFSGSGYGTDFTLTINNIESEDAAYYFCLQSDNLPYTFGQGTKLEIK | 330 | –
6 | BM09 (su3H6 with T94hR, Y27hA) (antibody, V domains shown) VH: EVQLVQSGAEVKKPGATVKISCKVSGATFTDYFMHWVQQAPGKGLEWMGYINCYTGATNYSQKFKGRVTITADTSTDTAYMELSSLRSEDTAVYYCARTSIGYGSSPPFPYWGQGTLVTVS VL: ETTLTQSPAFMSATPGDKVNISCITSTDIDDDMNWYQQKPGEAAIFIIQDGNTLRPGIPPRFSGSGYGTDFTLTINNIESEDAAYYFCLQSDNLPYTFGQGTKLEIK | 8300 | –
7 | BM07/vL02 (su3H6 with T94hR, Q49lS) (antibody, V domains shown) VH: EVQLVQSGAEVKKPGATVKISCKVSGYTFTDYFMHWVQQAPGKGLEWMGYINCYTGATNYSQKFKGRVTITADTSTDTAYMELSSLRSEDTAVYYCARTSIGYGSSPPFPYWGQGTLVTVS VL: ETTLTQSPAFMSATPGDKVNISCITSTDIDDDMNWYQQKPGEAAIFIISDGNTLRPGIPPRFSGSGYGTDFTLTINNIESEDAAYYFCLQSDNLPYTFGQGTKLEIK | 59 | –
